Results: patent US6863885B2, “Method of decreasing radiation or radio-mimetic chemotherapy for hematopoietic pluripotent cell engraftment” (The United States of America as represented by the …, priority 1995, dated 2005)

Tested on: engraftment of donor Sca-1+ HPCs (donor Ly5.2 cells among recipient PBMCs)
Test: Cytokine pre-conditioning effect on short term engraftment of donor Sca-1+ HPCs after 200 cGy radiation
Assay type: in vivo, C57BL/6-Ly-5.1-Pep3b mice
Settings: mice
Experimental: FIG. 1 is a bar graph showing the cytokine hematopoietic growth factor pretreatment conditioning effect on engraftment of HPCs following 200 cGy radiation in mice, one month after transplantation. Recipient C57BL/6J-Ly-5.1-Pep^3b mice received b.i.d. sc injections of PBS (□) 0.1% BSA, 4 μg rhGCSF (□) in 0.1% BSA, or 4 μg rhGCSF plus 1.0 μg rmSCF(▪) in 0.1% BSA (R&D Systems, Minneapolis, Minn.) for four days. On the fifth day, mice received a single sc injection followed one hour later by a 200 cGy radiation dose. Four hours after irradiation, all mice received 0.5×10^6 Sca-1+BM cells via tail vein injection. Mice were bled 1 month after BMT and PB was analyzed for engraftment. […] The data represent three experiments in series with 2 mice per condition in each experiment. All animals survived this procedure.
The data which forms the basis of the present invention concerns the enhanced in vivo transfer of purified SCA-1+bone marrow derived HPCs using congenic C57BL/6 mice, which differ only at the Ly5 locus. The origin of a cell is detectable by immunoreactivity with either anti-Ly5.1 or anti-Ly5.2 antibodies by FACS of PBMCs. […] Using this system, the effects of pre-transplantation cytokine conditioning on short term engraftment, defined as the percentage of total PBMCs in the recipient that were donor Ly5.2 cells, measured one month after transplantation, have been determined. […]

B1: rhGCSF: recombinant human granulocyte colony stimulating factor (R&D Systems), 4 μg in 0.1% BSA (protein, UniProt P09919 31-207, looked up)
Granulocyte …: TPLGPASSLPQSFLLKCLEQVRKIQGDGAALQEKLVSECATYKLCHPEELVLLGHSLGIPWAPLSSCPSQALQLAGCLSQLHSGLFLYQGLLQALEGISPELGPTLDTLQLDVADFATTIWQQMEELGMAPALQPTQGAMPAFASAFQRRAGGVLVASHLQSFLEVSYRVLRHLAQP
b.i.d. sc for four days plus final injection on day 5, 0.5×10^6 Sca-1+ cells iv, measured one month after transplantation
  engraftment (percentage of total PBMCs in the recipient that were donor Ly5.2 cells): 18.9%
One month after transplantation, versus vehicle control (0.1% BSA), p<0.01
  fold increase in engraftment compared with control: at least a three fold increase
